Experimental data reported in PMC3945225, “RBPJ, the Major Transcriptional Effector of Notch Signaling, Remains Associated with Chromatin throughout Mitosis, Suggesting a Role in Mitotic Bookmarking”.

Target: Flag-RBPJ (mouse, UniProt P31266-2 1-487)
Test: EMSA; 1 nM DNA; 12 mM Hepes pH 7.9, 10 mM Tris-HCl pH 7.5, 60 mM KCl, 8% glycerol, 4 mM MgCl2, 0.02% NP40, 30 C; 5% PAGE 0.5x TBE
Details: protein: recombinant; tags: Flag; label: 32P (T4 PNK); blunt

Sequence of Flag-RBPJ (P31266 other isoform, or with tags, fused parts or gaps): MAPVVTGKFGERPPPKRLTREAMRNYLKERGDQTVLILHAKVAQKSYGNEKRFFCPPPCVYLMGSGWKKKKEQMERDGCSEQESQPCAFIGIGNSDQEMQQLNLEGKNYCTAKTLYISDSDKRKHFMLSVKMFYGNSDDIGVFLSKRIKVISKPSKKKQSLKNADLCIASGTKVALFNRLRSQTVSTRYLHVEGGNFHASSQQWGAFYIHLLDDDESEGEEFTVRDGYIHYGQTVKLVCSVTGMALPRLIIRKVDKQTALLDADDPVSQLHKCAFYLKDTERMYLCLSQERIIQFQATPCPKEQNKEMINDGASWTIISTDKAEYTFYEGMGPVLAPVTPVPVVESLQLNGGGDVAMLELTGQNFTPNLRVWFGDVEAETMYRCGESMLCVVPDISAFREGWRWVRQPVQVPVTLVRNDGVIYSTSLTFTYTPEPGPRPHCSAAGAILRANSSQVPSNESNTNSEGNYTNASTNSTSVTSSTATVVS

B1: 16 bp RBPJ motif DNA (dsDNA)
DNA 1: CACTGGGAACCTACCC
DNA 2: GGGTAGGTTCCCAGTG
Q: Does B1 bind?
A: binds
